Laboratory results reported in PMC5805711.
Where two headings read alike, the source gives them in different places.

What was measured:
His68 [1] = molecular target: T1, His68 (UniProt position 68, KESTLHLVLRL); assay: NMR; conditions: 23 °C; Not stated explicitly for Ub^WT; described as 'a similar pH titration' to that of pUb in citric acid-phosphate buffer; Free wild-type ubiquitin, folded
His68 [2] = molecular target: T1, His68; conditions: Ubiquitin; form not further specified (literature value); cited from earlier work

## Ubiquitin (Ub^WT) (Homo sapiens (inferred; the article does not state the species of the ubiquitin))
His68 [1]
  pKa: 5.7
His68 [2]
  pKa: 5.5
